Experimental data taken from patent publication US5830755.

Assays:
[1] = target: MART-1 antigen processed in the cell and presented by HLA-A2.1 (human) (UniProt Q16655)
[2] = target: gp100 antigen processed in the cell and presented by HLA-A2.1 (human) (UniProt P40967)
[3] = target: gp100(280-288) peptide … presented by HLA-A2.1 (human)
[4] = target: MART-1(26-35) peptide … presented by HLA-A2.1 (human)
[5] = target: melanoma antigen presented by HLA-A1 on HLA-A1+, HLA-A2- melanoma cell lines (peptide not identified) (human)
[6] = target: melanoma antigen presented by HLA-A2 on HLA-A2+ melanoma cell lines (peptide not identified in the experiment) (human)
[7] = target: MART-1(22-30) peptide … pulsed on HLA-A2.1 T2 cells (human)
[8] = target: MART-1(27-35) peptide … presented by HLA-A2.1 (human)
[9] = target: MART-1(27-36) peptide … presented by HLA-A2.1 (human)
[10] = target: melanoma antigen presented by HLA-A1 on HLA-A1+, HLA-A2- melanoma cell lines (peptide not identified) (human); remark: listed apart in the source
[11] = target: melanoma antigen presented by HLA-A2 on HLA-A2+ melanoma cell lines (peptide not identified in the experiment) (human); remark: listed apart in the source
[12] = target: melanoma antigen presented by HLA-A1 on HLA-A1+, HLA-A2- melanoma cell lines (peptide not identified) (human); remark: listed apart in the source
[13] = target: melanoma antigen presented by HLA-A2 on HLA-A2+ melanoma cell lines (peptide not identified in the experiment) (human); remark: listed apart in the source
[14] = target: MART-1(22-30) peptide … pulsed on HLA-A2.1 T2 cells (human); remark: listed apart in the source
[15] = target: MART-1(27-35) peptide … presented by HLA-A2.1 (human); remark: listed apart in the source
[16] = target: MART-1(32-40) peptide … pulsed on HLA-A2.1 T2 cells (human)
[17] = target: gp100(457-465) peptide … presented by HLA-A2.1 (human)
[18] = target: MART-1(27-36) peptide … presented by HLA-A2.1 (human); remark: listed apart in the source
[19] = target: 38 kD folate binding protein (FBP) (Homo sapiens (Human)) (UniProt P15328)
[20] = target: 38 kD folate binding protein (FBP) (Homo sapiens (Human)) (UniProt P15328); remark: listed apart in the source
[21] = target: 38 kD folate binding protein (FBP) (Homo sapiens (Human)) (UniProt P15328); remark: listed apart in the source
[22] = target: MART-1 antigen processed in the cell and presented by HLA-A2.1 (human) (UniProt Q16655); remark: listed apart in the source
[23] = target: melanoma antigen presented by HLA-A1 on HLA-A1+, HLA-A2- melanoma cell lines (peptide not identified) (human); remark: listed apart in the source
[24] = target: MART-1(26-35) peptide … presented by HLA-A2.1 (human); remark: listed apart in the source
[25] = target: MART-1(27-35) peptide … presented by HLA-A2.1 (human); remark: listed apart in the source
[26] = target: MART-1(27-35) peptide … presented by HLA-A2.1 (human); remark: listed apart in the source
[27] = target: CD3 on murine TIL (murine)

Substance “clone 1E2 TCR (TIL 1E2 clonotype, Vα25/Jα54/Cα and Vβ3.1/Dβ1.1/Jβ1.1/Cβ1)” has an IFN-γ Secretion [1] of 1340 pg/mL, an IFN-γ Secretion [2] of under 10 pg/mL and an IFN-γ Secretion [3] of 21 pg/mL. The IFN-γ Secretion [4] was 5250 pg/mL, the IFN-γ Secretion [5] was 29 pg/mL and the IFN-γ Secretion [6] was 2700 pg/mL. The IFN-γ Secretion [7] was 18 pg/mL, the IFN-γ Secretion [8] was 16500 pg/mL and the IFN-γ Secretion [9] was 24 pg/mL. For the same substance, the % lysis, 5 hr 51Cr release, E:T 20:1 [10] was 0 % lysis and the % lysis, 5 hr 51Cr release, E:T 20:1 [11] was 94 % lysis.
“clone A42 TCR (TIL A42 clonotype, Vα21/Jα42/Cα and Vβ7.3/Dβ2.1/Jβ2.7/Cβ2)” gave an IFN-γ Secretion [1] of 730 pg/mL, an IFN-γ Secretion [2] of under 10 pg/mL and an IFN-γ Secretion [3] of 19 pg/mL. It also gave an IFN-γ Secretion [4] of 765 pg/mL, an IFN-γ Secretion [5] of 18 pg/mL and an IFN-γ Secretion [6] of 772 pg/mL. It also gave an IFN-γ Secretion [7] of 16 pg/mL, an IFN-γ Secretion [8] of over 20000 pg/mL and an IFN-γ Secretion [9] of 22 pg/mL. For the same substance, the % lysis, 5 hr 51Cr release, E:T 20:1 [10] was 0 % lysis and the % lysis, 5 hr 51Cr release, E:T 20:1 [11] was 57 % lysis.
For “TIL F2-2 TCR (TIL F2-2 clonotype, Vα17/Jα42/Cα and Vβ6.5/Dβ1.1/Jβ1.5/Cβ1)”, the % lysis, 4 hour 51Cr release, E:T 40:1 [12] was 1 % lysis and the % lysis, 4 hour 51Cr release, E:T 40:1 [13] was 46 % lysis.
“Jurkat neo (non-transfected Jurkat cells with the endogenous Jurkat TCR, Vβ8)” was tested, and the IL-2 released [14] was under 10 pg/mL, the IL-2 released [15] was under 10 pg/mL and the IL-2 released [16] was under 10 pg/mL. It also gave an IL-2 released [17] of under 10 pg/mL and an IL-2 released [18] of under 10 pg/mL.
Work on “TIL C10-1 TCR (C10-1 T-cell clonotype, Vα8.2/Jα49/Cα and Vβ13.6/Dβ1.1/Jβ1.5/Cβ1)” yielded a % lysis, 4 hour 51Cr release, E:T 40:1 [12] of 55 % lysis and a % lysis, 4 hour 51Cr release, E:T 40:1 [13] of 0 % lysis.
“MOv-γ chimeric receptor (scFv of MoAb MOv18 joined to the Fc receptor γ chain) (CAR)” showed a pg mIFN-γ/ml/5 × 10^5 cells/16 hours [19] of 16000 pg/mL, a mIFN-γ, pg/1.5 × 10^6 splenocytes/ml/48 hrs, fresh splenocytes [20] of 1080 pg/mL and a mIFN-γ, pg/1.5 × 10^6 splenocytes/ml/18 hrs, activated splenocytes [21] of 2830 pg/mL.
“TIL 1235 (uncloned TIL line) (cells without a defined receptor)” was tested, and the IFN-γ Secretion [3] was 15 pg/mL, the GM-CSF released [22] was 557 pg/mL and the GM-CSF released [23] was under 10 pg/mL. For the same substance, the GM-CSF released [24] was 6710 pg/mL, the GM-CSF released [14] was 21 pg/mL and the GM-CSF released [15] was 11900 pg/mL. The GM-CSF released [16] was under 10 pg/mL, the GM-CSF released [17] was 27 pg/mL and the GM-CSF released [18] was 614 pg/mL.
“clone 5 TCR (TIL5 clonotype, Vα1/Jα49/Cα and Vβ7.3/Dβ2.1/Jβ2.1/Cβ2)” was tested, and the concentration of peptide required to provide 50% of maximal IL-2 stimulation [25] was 50 to 200 nM, the % lysis, 4 hour 51Cr release, E:T 10:1 [12] was -2 % lysis and the % lysis, 4 hour 51Cr release, E:T 10:1 [13] was 52 % lysis. The IL-2 released (pg/ml), HLA-A2+ melanoma cells loaded with peptide [26] was 540 pg/mL, the IL-2 released [24] was 4060 pg/mL and the IL-2 released [14] was under 10 pg/mL. For the same substance, the IL-2 released [15] was 4760 pg/mL, the IL-2 released [16] was under 10 pg/mL and the IL-2 released [17] was under 10 pg/mL. It also gave an IL-2 released [18] of 469 pg/mL.
In the case of “nontransduced murine MC38 TIL (cells without a defined receptor)”, the pg mIFN-γ/ml/5 × 10^5 cells/16 hours [19] is reported as 1640 pg/mL.
2C11 (anti-CD3) antibody was tested, and the pg mIFN-γ/ml/5 × 10^5 cells/16 hours [27] was over 50000 pg/mL.
Substance “TIL 1143 (uncloned TIL culture) (cells without a defined receptor)” has an IFN-γ Secretion [1] of 986 pg/mL and an IFN-γ Secretion [2] of 199 pg/mL.
Work on “TIL 501 (uncloned TIL culture) (cells without a defined receptor)” yielded an IFN-γ Secretion [1] of 121 pg/mL and an IFN-γ Secretion [2] of under 10 pg/mL.
“TIL 1200 TCR (TIL 1200 clonotype, Vα9/Jα16/Cα and Vβ22.1/Dβ2.1/Jβ2.1/Cβ2)” was tested, and the IFN-γ Secretion [1] was under 10 pg/mL, the IFN-γ Secretion [2] was 451 pg/mL and the % lysis, 4 hour 51Cr release, E:T 40:1 [12] was 2 % lysis. The % lysis, 4 hour 51Cr release, E:T 40:1 [13] was 68 % lysis, the GM-CSF released [24] was 23 pg/mL and the GM-CSF released [14] was under 10 pg/mL. It also gave a GM-CSF released [15] of 19 pg/mL, a GM-CSF released [16] of under 10 pg/mL and a GM-CSF released [17] of 240 pg/mL. The GM-CSF released [18] was 19 pg/mL.
“TIL 660 (uncloned TIL line) (cells without a defined receptor)” gave an IFN-γ Secretion [3] of 1320 pg/mL, an IFN-γ Secretion [4] of 1120 pg/mL and an IFN-γ Secretion [5] of 27 pg/mL. The IFN-γ Secretion [6] was 585 pg/mL, the IFN-γ Secretion [7] was 21 pg/mL and the IFN-γ Secretion [8] was 2330 pg/mL. The IFN-γ Secretion [9] was 52 pg/mL.
“splenocytes of normal mice (cells without a defined receptor)” was tested, and the mIFN-γ, pg/1.5 × 10^6 splenocytes/ml/48 hrs, fresh splenocytes [20] was 92 pg/mL.
“Sp-γ chimeric receptor (scFv of anti-2,4,6 TNP MoAb Sp6 joined to the Fc receptor γ chain) (CAR)” gave a pg mIFN-γ/ml/5 × 10^5 cells/16 hours [19] of 1010 pg/mL.
